# From patent US20240270821A1, “GIP/GLP1/GCG TRI-RECEPTOR AGONISTS AND USES THEREOF” (priority 2023, published 2024)
# Residue numbers refer to the chain shown, from its start. Non-standard residues stand in square brackets, D forms with d. No end group written: not given here. αMePhe(2-F) = C[C@](N)(Cc1ccccc1F)C(=O)O; Aib = CC(C)(N)C(=O)O
# T1: human GIP receptor (human) (UniProt P48546)
# T1 sequence (looked up): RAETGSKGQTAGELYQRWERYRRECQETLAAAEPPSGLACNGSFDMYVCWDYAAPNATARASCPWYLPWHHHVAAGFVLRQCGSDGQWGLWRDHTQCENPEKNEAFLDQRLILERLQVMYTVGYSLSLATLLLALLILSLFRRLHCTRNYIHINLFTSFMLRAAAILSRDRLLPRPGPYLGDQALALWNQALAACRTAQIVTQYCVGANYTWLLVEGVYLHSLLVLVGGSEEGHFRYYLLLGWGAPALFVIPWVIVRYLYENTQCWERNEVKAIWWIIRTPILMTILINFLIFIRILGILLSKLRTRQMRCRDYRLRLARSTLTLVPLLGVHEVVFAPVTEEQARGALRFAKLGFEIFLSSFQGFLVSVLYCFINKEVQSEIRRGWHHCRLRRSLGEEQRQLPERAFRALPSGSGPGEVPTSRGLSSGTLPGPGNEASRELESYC
# B1: Example 406 (peptide)
# chain: YXQGTXTSDYSILLDKKAQXAFIEYLEEGGPSSGAPPPS
# modifications: synthetic construct; SITE 2: note = 2-Aminoisobutyric Acid; SITE 6: note = alpha-methyl-2-fluoro-L-phenylalanine; SITE 17: note = Lysine is chemically modified through conjugation of the epsilon-amino group of the Lysine side chain with (gamma-Glu)2-CO-(CH2)16-CO2H; SITE 20: note = 2-Aminoisobutyric
# B2: Example 408 (peptide)
# chain: B1 chain with S39E
# modifications: synthetic construct; SITE 2: note = 2-Aminoisobutyric Acid; SITE 6: note = alpha-methyl-2-fluoro-L-phenylalanine; SITE 17: note = Lysine is chemically modified through conjugation of the epsilon-amino group of the Lysine side chain with (2-[2-(2-Amino-ethoxy)-ethoxy]-acetyl)-(gamma-Glu)-CO-(CH2) 16-
# B3: Example 409 (peptide)
# chain: B1 chain with I12S
# modifications: synthetic construct; SITE 2: note = 2-Aminoisobutyric Acid; SITE 6: note = alpha-methyl-2-fluoro-L-phenylalanine; SITE 17: note = Lysine is chemically modified through conjugation of the epsilon-amino group of the Lysine side chain with (2-[2-(2-Amino-ethoxy)-ethoxy]-acetyl)-(gamma-Glu)-CO-(CH2) 16-
# B4: Example 410 (peptide)
# chain: Y[Aib]QGT[αMePhe(2-F)]TSDYSILLDAKAFIEYLEEGGPSSGAPPPSEG-NH2
# modifications: not fully specified (residue 17)
# B5: Example 411 (peptide)
# chain: YXQGTXTSDYSILLDKKAQXAFIEXLEEGGPSSGAPPPSEG
# modifications: synthetic construct; SITE 2: note = 2-Aminoisobutyric Acid; SITE 6: note = alpha-methyl-2-fluoro-L-phenylalanine; SITE 17: note = Lysine is chemically modified through conjugation of the epsilon-amino group of the Lysine side chain with (2-[2-(2-Amino-ethoxy)-ethoxy]-acetyl)-(gamma-Glu)-CO-(CH2) 16-
# B6: Example 412 (peptide)
# chain: B5 chain with X25F
# modifications: not fully specified; synthetic construct; SITE 2: note = 2-Aminoisobutyric Acid; SITE 6: note = alpha-methyl-2-fluoro-L-phenylalanine; SITE 17: note = Lysine is chemically modified through conjugation of the epsilon-amino group of the Lysine side chain with (2-[2-(2-Amino-ethoxy)-ethoxy]-acetyl)-(gamma-Glu)-CO-(CH2) 16-
# B7: Example 413 (peptide)
# chain: B1 chain with Y10X
# modifications: not fully specified; synthetic construct; SITE 2: note = 2-Aminoisobutyric Acid; SITE 6: note = alpha-methyl-2-fluoro-L-phenylalanine; SITE 10: note = 3-(4-Pyridyl)-L-alanine; SITE 17: note = Lysine is chemically modified through conjugation of the epsilon-amino group of the Lysine side chain with (gamma-Glu)2-CO-(CH2)1
# B8: Example 414 (peptide)
# chain: B1 chain with K16X
# modifications: synthetic construct; SITE 2: note = 2-Aminoisobutyric Acid; SITE 6: note = alpha-methyl-2-fluoro-L-phenylalanine; SITE 16: note = L-ornithine; SITE 17: note = Lysine is chemically modified through conjugation of the epsilon-amino group of the Lysine side chain with (gamma-Glu)2-CO-(CH2)16-CO2H; SITE
# B9: Example 415 (peptide)
# chain: B1 chain with A21X
# modifications: synthetic construct; SITE 2: note = 2-Aminoisobutyric Acid; SITE 6: note = alpha-methyl-2-fluoro-L-phenylalanine; SITE 17: note = Lysine is chemically modified through conjugation of the epsilon-amino group of the Lysine side chain with (gamma-Glu)2-CO-(CH2)16-CO2H; SITE 20: note = 2-Aminoisobutyric
# B10: Example 416 (peptide)
# chain: B1 chain with A21N
# modifications: synthetic construct; SITE 2: note = 2-Aminoisobutyric Acid; SITE 6: note = alpha-methyl-2-fluoro-L-phenylalanine; SITE 17: note = Lysine is chemically modified through conjugation of the epsilon-amino group of the Lysine side chain with (gamma-Glu)2-CO-(CH2)16-CO2H; SITE 20: note = 2-Aminoisobutyric
# B11: Example 417 (peptide)
# chain: B5 chain with L13X, X25Y, E27L, G29T
# modifications: synthetic construct; SITE 2: note = 2-Aminoisobutyric Acid; SITE 6: note = alpha-methyl-2-fluoro-L-phenylalanine; SITE 13: note = alpha-methyl-leucine; SITE 17: note = Lysine is chemically modified through conjugation of the epsilon-amino group of the Lysine side chain with (2-[2-(2-Amino-ethoxy)-et)
# B12: Example 418 (peptide)
# chain: B1 chain with Y10X, E27L
# modifications: synthetic construct; SITE 2: note = 2-Aminoisobutyric Acid; SITE 6: note = alpha-methyl-L-phenylalanine; SITE 10: note = 3-(4-Pyridyl)-L-alanine; SITE 17: note = Lysine is chemically modified through conjugation of the epsilon-amino group of the Lysine side chain with (2-[2-(2-Amino-ethoxy)-ethoxy]-
# B13: Example 419 (peptide)
# chain: B1 chain with E27L
# modifications: synthetic construct; SITE 2: note = 2-Aminoisobutyric Acid; SITE 6: note = alpha-methyl-L-phenylalanine; SITE 17: note = Lysine is chemically modified through conjugation of the epsilon-amino group of the Lysine side chain with (2-[2-(2-Amino-ethoxy)-ethoxy]-acetyl)2-(gamma-Glu)-CO-(CH2 )16-CO2H; SI
# B14: Example 420 (peptide)
# chain: YXQGTXTSDYXIXLDXKAQXAFIEYLLEGGPSSGEPPPE
# modifications: synthetic construct; SITE 2: note = 2-Aminoisobutyric Acid; SITE 6: note = alpha-methyl-L-phenylalanine; SITE 11: note = alpha-methyl-L-serine; SITE 13: note = alpha-methyl-leucine; SITE 16: note = L-ornithine; SITE 17: note = Lysine is chemically modified through conjugation of the epsilon-amino gr
# Biological target: hGLP-1R (Homo sapiens, UniProt P43220)
# Sequence (P43220 24-463): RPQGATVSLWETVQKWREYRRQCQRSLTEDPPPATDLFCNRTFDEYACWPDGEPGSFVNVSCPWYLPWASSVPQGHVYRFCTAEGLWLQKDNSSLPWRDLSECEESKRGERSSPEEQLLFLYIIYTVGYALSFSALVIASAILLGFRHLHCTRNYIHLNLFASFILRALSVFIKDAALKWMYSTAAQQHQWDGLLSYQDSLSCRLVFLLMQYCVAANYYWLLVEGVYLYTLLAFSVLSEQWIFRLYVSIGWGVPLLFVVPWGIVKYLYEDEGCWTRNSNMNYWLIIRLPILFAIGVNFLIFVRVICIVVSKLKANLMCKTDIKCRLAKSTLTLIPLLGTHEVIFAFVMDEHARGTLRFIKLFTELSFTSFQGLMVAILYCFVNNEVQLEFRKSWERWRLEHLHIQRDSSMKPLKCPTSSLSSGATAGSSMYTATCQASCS
# Test: cell-based or functional assay
Binder,Relative cAMP EC50 [nM],"cAMP Rel EC50, nM (1% HSA) [nM]"
B1,0.208,27.8
B2,0.253,37.9
B3,0.484,41.7
B4,0.354,84.4
B5,0.709,82.1
B6,0.282,46
B7,0.564,41.4
B8,0.176,32.8
B9,0.38,52.6
B10,0.331,40.8
B11,0.328,67
B12,0.264,36.6
B13,0.615,65.5
B14,0.205,31.3

# Biological target: T1, human GIP receptor (human)
# Test: cell-based or functional assay
Binder,Relative cAMP EC50 [nM],"cAMP Rel EC50, nM (1% HSA) [nM]"
B1,0.0233,10.5
B2,0.0329,15.3
B3,0.363,66.6
B4,0.0708,49.3
B5,0.058,23.8
B6,0.0351,12.5
B7,0.0881,23.5
B8,0.0303,14.9
B9,0.0496,28.9
B10,0.0393,27.6
B11,0.0144,4.46
B12,0.0153,6.02
B13,0.0235,9.47
B14,0.0131,2.61

# Biological target: human glucagon receptor (human) (UniProt P47871)
# Sequence (P47871 26-477): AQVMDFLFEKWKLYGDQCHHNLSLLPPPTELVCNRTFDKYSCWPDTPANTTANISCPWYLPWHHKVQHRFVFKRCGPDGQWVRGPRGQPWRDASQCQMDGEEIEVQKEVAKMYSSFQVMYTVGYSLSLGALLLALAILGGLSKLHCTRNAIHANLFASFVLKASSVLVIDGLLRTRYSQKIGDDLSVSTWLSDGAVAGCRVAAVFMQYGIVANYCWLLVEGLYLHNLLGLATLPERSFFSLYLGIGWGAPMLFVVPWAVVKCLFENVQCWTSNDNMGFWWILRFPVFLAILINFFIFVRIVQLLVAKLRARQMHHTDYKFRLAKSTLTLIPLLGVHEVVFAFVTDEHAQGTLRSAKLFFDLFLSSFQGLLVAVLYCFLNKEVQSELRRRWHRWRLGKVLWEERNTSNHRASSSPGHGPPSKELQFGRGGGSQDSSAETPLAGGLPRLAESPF
# Test: cell-based or functional assay
Binder,Relative cAMP EC50 [nM],"cAMP Rel EC50, nM (1% HSA) [nM]"
B1,1.23,254
B2,1.93,472
B3,7.92,1190
B4,9.94,1950
B5,3.94,1170
B6,2.36,467
B7,6.3,629
B8,4.56,487
B9,8.64,1090
B10,2.08,348
B11,2.83,386
B12,4.7,627
B13,8.52,1650
B14,2.49,433
